Source: US20240294593A1 (Genentech, published 2024)

Molecular target: T1, human PD-1-His (human, UniProt Q15116 25-167, limits assumed)
T1 construct: Antigen of the Octet assays; not shown: His tag
Experiment: Octet

T1 sequence (Q15116 25-167 limits assumed): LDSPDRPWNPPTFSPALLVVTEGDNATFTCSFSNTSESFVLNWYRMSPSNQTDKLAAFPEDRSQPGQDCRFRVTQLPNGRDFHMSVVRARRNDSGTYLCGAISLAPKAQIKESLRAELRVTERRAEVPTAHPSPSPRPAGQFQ

B1: H1.4_L1 (antibody, human IgG1, kappa, V domains shown)
VH: EVQLVESGGGLVQPGGSLRLSCAASGFTFGSFGMHWVRQAPGKGLEWVSYISSGSSIIYYADSVKGRFTISRDNAKNSLYLQMNSLRAEDTAVYYCARGGRLVWSPDYWGQGTLVTVSS
VL: DIVMTQSPDSLAVSLGERATINCKSSQSLLNSGNQKNYLTWYQQKPGQPPKLLIYWASTRESGVPDRFTGSGSGTDFTLTISSLQAEDVAVYYCQNDYSYPFTFGSGTKLEIKR
notes: also called VH-S30G; Kabat 30G; copies: 2 + 2
Kd: 34 nM
koff: 0.00422 s⁻¹
kon: 124000 M⁻¹ s⁻¹

B2: H1.5_L1 (antibody, human IgG1, kappa, V domains shown)
VH: EVQLVESGGGLVQPGGSLRLSCAASGFTFVSFGMHWVRQAPGKGLEWVSYISSGSSIIYYADSVKGRFTISRDNAKNSLYLQMNSLRAEDTAVYYCARGGRLVWSPDYWGQGTLVTVSS
VL: DIVMTQSPDSLAVSLGERATINCKSSQSLLNSGNQKNYLTWYQQKPGQPPKLLIYWASTRESGVPDRFTGSGSGTDFTLTISSLQAEDVAVYYCQNDYSYPFTFGSGTKLEIKR
notes: also called VH-S30V; Kabat 30V; copies: 2 + 2
Kd: 37.4 nM
koff: 0.00475 s⁻¹
kon: 127000 M⁻¹ s⁻¹

B3: H1.6_L1 (antibody, human IgG1, kappa, V domains shown)
VH: EVQLVESGGGLVQPGGSLRLSCAASGFTFHSFGMHWVRQAPGKGLEWVSYISSGSSIIYYADSVKGRFTISRDNAKNSLYLQMNSLRAEDTAVYYCARGGRLVWSPDYWGQGTLVTVSS
VL: DIVMTQSPDSLAVSLGERATINCKSSQSLLNSGNQKNYLTWYQQKPGQPPKLLIYWASTRESGVPDRFTGSGSGTDFTLTISSLQAEDVAVYYCQNDYSYPFTFGSGTKLEIKR
notes: also called VH-S30H; Kabat 30H; copies: 2 + 2
Kd: 48.5 nM
koff: 0.00529 s⁻¹
kon: 109000 M⁻¹ s⁻¹

B4: H1.7_L1 (antibody, human IgG1, kappa, V domains shown)
VH: EVQLVESGGGLVQPGGSLRLSCAASGFTFKSFGMHWVRQAPGKGLEWVSYISSGSSIIYYADSVKGRFTISRDNAKNSLYLQMNSLRAEDTAVYYCARGGRLVWSPDYWGQGTLVTVSS
VL: DIVMTQSPDSLAVSLGERATINCKSSQSLLNSGNQKNYLTWYQQKPGQPPKLLIYWASTRESGVPDRFTGSGSGTDFTLTISSLQAEDVAVYYCQNDYSYPFTFGSGTKLEIKR
notes: also called VH-S30K; Kabat 30K; copies: 2 + 2
Kd: 52.5 nM
koff: 0.00545 s⁻¹
kon: 104000 M⁻¹ s⁻¹

B5: H1.8_L1 (antibody, human IgG1, kappa, V domains shown)
VH: EVQLVESGGGLVQPGGSLRLSCAASGFTFYSFGMHWVRQAPGKGLEWVSYISSGSSIIYYADSVKGRFTISRDNAKNSLYLQMNSLRAEDTAVYYCARGGRLVWSPDYWGQGTLVTVSS
VL: DIVMTQSPDSLAVSLGERATINCKSSQSLLNSGNQKNYLTWYQQKPGQPPKLLIYWASTRESGVPDRFTGSGSGTDFTLTISSLQAEDVAVYYCQNDYSYPFTFGSGTKLEIKR
notes: also called VH-S30Y; Kabat 30Y
Kd: 51.3 nM
koff: 0.00534 s⁻¹
kon: 104000 M⁻¹ s⁻¹

B6: H1.9_L1 (antibody, human IgG1, kappa, V domains shown)
VH: EVQLVESGGGLVQPGGSLRLSCAASGFTFSTFGMHWVRQAPGKGLEWVSYISSGSSIIYYADSVKGRFTISRDNAKNSLYLQMNSLRAEDTAVYYCARGGRLVWSPDYWGQGTLVTVSS
VL: DIVMTQSPDSLAVSLGERATINCKSSQSLLNSGNQKNYLTWYQQKPGQPPKLLIYWASTRESGVPDRFTGSGSGTDFTLTISSLQAEDVAVYYCQNDYSYPFTFGSGTKLEIKR
notes: also called VH-S31T; Kabat 31T; copies: 2 + 2
Kd: 46.9 nM
koff: 0.00567 s⁻¹
kon: 121000 M⁻¹ s⁻¹

B7: H1.10_L1 (antibody, human IgG1, kappa, V domains shown)
VH: EVQLVESGGGLVQPGGSLRLSCAASGFTFSAFGMHWVRQAPGKGLEWVSYISSGSSIIYYADSVKGRFTISRDNAKNSLYLQMNSLRAEDTAVYYCARGGRLVWSPDYWGQGTLVTVSS
VL: DIVMTQSPDSLAVSLGERATINCKSSQSLLNSGNQKNYLTWYQQKPGQPPKLLIYWASTRESGVPDRFTGSGSGTDFTLTISSLQAEDVAVYYCQNDYSYPFTFGSGTKLEIKR
notes: also called VH-S31A; Kabat 31A; copies: 2 + 2
Kd: 36.9 nM
koff: 0.00425 s⁻¹
kon: 115000 M⁻¹ s⁻¹

B8: H1.11_L1 (antibody, human IgG1, kappa, V domains shown)
VH: EVQLVESGGGLVQPGGSLRLSCAASGFTFSQFGMHWVRQAPGKGLEWVSYISSGSSIIYYADSVKGRFTISRDNAKNSLYLQMNSLRAEDTAVYYCARGGRLVWSPDYWGQGTLVTVSS
VL: DIVMTQSPDSLAVSLGERATINCKSSQSLLNSGNQKNYLTWYQQKPGQPPKLLIYWASTRESGVPDRFTGSGSGTDFTLTISSLQAEDVAVYYCQNDYSYPFTFGSGTKLEIKR
notes: also called VH-S31Q; Kabat 31Q; copies: 2 + 2
Kd: 36.8 nM
koff: 0.00454 s⁻¹
kon: 123000 M⁻¹ s⁻¹
